B1: CPEB3 Ribozyme (parent)
chain: GGGGGCCACAGCAGAAGCGUUCACGUCGCGGCCCCUGUCAGAUUCUGGUGAAUCUGCGAAUUCUGCUGU

The variants in the data set derive from B1. Description: self-cleavage, relative activity (ratio to wild type); higher = more cleavage; co-transcriptional.
Take GGGGACCACAGCAGAAGCGUUCACGUCGCGGUCCCUGUCAGAUUCUGGUGAAUCUGCGAAUUCUGCUGU: the self-cleavage stood at 0.992. Regarding GGGUGCCACAGCAGAAGCGUUCACGUCGCGGCCCCUGUCAGAUUCUGGUGAAUCUGCGAAUACUGCUGU, the self-cleavage was 0.315.

As for GGGGACCACAGCGGAAGCGUUCACGUCGCGGCCCCUGUCAGAUUCUGGUGAAUCUGCGAAUUCUGCUGU, the self-cleavage was 0.88. To GGGGACCACAGCUGAAGCGUUCACGUCGCGGCCCCUGUCAGAUUCUGGUGAAUCUGCGAAUUCUGCUGU belongs 0.642. With GGGGACCACAGUAGAAGCGUUCACGUCGCGGCCCCUGUCAGAUUCUGGUGAAUCUGCGAAUUCUGCUGU, the self-cleavage amounted to 0.931. For the variant GGGGCCCACAGCAGAGGCGUUCACGUCGCGGCCCCUGUCAGAUUCUGGUGAAUCUGCGAAUUCUGCUGU, the self-cleavage worked out at 0.205. In the case of GGGGCCCACAGCAGACGCGUUCACGUCGCGGCCCCUGUCAGAUUCUGGUGAAUCUGCGAAUUCUGCUGU it was 0.0946. In the case of GGGGCCCACAGCAGAUGCGUUCACGUCGCGGCCCCUGUCAGAUUCUGGUGAAUCUGCGAAUUCUGCUGU it was 0.169; in that of GGGGACCACAGCAGAAGCGUUCACGUCGCGGCCCCUGUCAGAUUCUGGUGAAUCUGCGAAUUCUGCAGU, 0.953. With GGGGAGCACAGCAGAAGCGUUCACGUCGCGGCCCCUGUCAGAUUCUGGUGAAUCUGCGAAUUCUGCUGU, the self-cleavage amounted to 0.0495. In the case of GGGGACCACAGCAGAAGCGUUCACGUCGCGGCCCCUGUCAGAUUCUGGUGAAUCGGCGAAUUCUGCUGU it was 0.433; in that of GGGGCCCACAGCCGAAGCGUUCACGUCGCGGCCCCUGUCAGAUUCUGGUGAAUCUGCGAAUUCUGCUGU, 0.17. GGGGCCCACAGCGGAAGCGUUCACGUCGCGGCCCCUGUCAGAUUCUGGUGAAUCUGCGAAUUCUGCUGU: the self-cleavage was found to be 0.273. To GGGGCCCACAGCUGAAGCGUUCACGUCGCGGCCCCUGUCAGAUUCUGGUGAAUCUGCGAAUUCUGCUGU belongs 0.172; to GGGGCCCACAGCAGAAGCGUUCACGUCGCGGCCCCUGUCAGGUUCUGGUGAAUCUGCGAAUUCUGCUGU, 0.282. In the case of GGGGACCAUAGCAGAAGCGUUCACGUCGCGGCCCCUGUCAGAUUCUGGUGAAUCUGCGAAUUCUGCUGU, the self-cleavage came to 1.02. With GGGGACCAGAGCAGAAGCGUUCACGUCGCGGCCCCUGUCAGAUUCUGGUGAAUCUGCGAAUUCUGCUGU, the self-cleavage came out at 0.982. Turning to GGGGACCACAGCAGAAGCGUUCCCGUCGCGGCCCCUGUCAGAUUCUGGUGAAUCUGCGAAUUCUGCUGU, the self-cleavage was 0.766.

Take GGGGACCACAGCAGAAGCGUUCGCGUCGCGGCCCCUGUCAGAUUCUGGUGAAUCUGCGAAUUCUGCUGU: the self-cleavage was 0.806. In the case of GGGGCCCACAGCAGCAGCGUUCACGUCGCGGCCCCUGUCAGAUUCUGGUGAAUCUGCGAAUUCUGCUGU it was 0.113. As to GGGGCCCACAGCAGGAGCGUUCACGUCGCGGCCCCUGUCAGAUUCUGGUGAAUCUGCGAAUUCUGCUGU, the self-cleavage came out at 0.3. To GGGGCCCACAGCAGUAGCGUUCACGUCGCGGCCCCUGUCAGAUUCUGGUGAAUCUGCGAAUUCUGCUGU belongs 0.15; to GGGGCCCACAGCAGAAGCGUUCACGUCGCGGCCCCUGUCAGAUUCUGGUGAAUCUGCGUAUUCUGCUGU, 0.14; to GGGGCCCACAGCAGAAGCGUUCACGUCGCGGCCCCUGUCAGAUUCUGGUGAAUCUGCGCAUUCUGCUGU, 0.135.

Take GGGGACCACAGCAGAAGCGAUCACGUCGCGGCCCCUGUCAGAUUCUGGUGAAUCUGCGAAUUCUGCUGU: the self-cleavage was determined as 0.0737. Consider GGGUGCCACAGCAGAAGCGUUCACGUCGCGGCCCCUGUCAGAUUCUGGUGAAUCUGCGAAUUCUGCUGC, for which the self-cleavage is 1.02. To GGGUGCCACAGCAGAAGCGUUCACGUCGCGGCCCCUGUCAGAUUCUGGUGAAUCUGCGAAUUCUGCUGG belongs 0.941; to GGGGACCACAGCAGAAGCGUUCACGUCGCGGCCCCUGUCAGAUUCUGGUGAAUCUGCGAAUACUGCUGU, 0.492. In the case of GGGGACCACAGCAGAAGCGUUCACGUCGCGGCCCCUGUCAGAUUCUGGUGAAUCUGCGAAUGCUGCUGU it was 0.447. In the case of GGGGACCACAGCAGAAGCGUUCACGUCGCGGCUCCUGUCAGAUUCUGGUGAAUCUGCGAAUUCUGCUGU it was 0.568. Take GGGUGCCACAGCAGAAGCGUUCACGUCGCGGCCCCUGUCAGAUUCUGGUGAAUCUGCGAAAUCUGCUGU: the self-cleavage is 0.154. To GGGUGCCACAGCAGAAGCGUUCACGUCGCGGCCCCUGUCAGAUUCUGGUGAAUCUGCGAAGUCUGCUGU belongs 0.439; to GGGGCUCACAGCAGAAGCGUUCACGUCGCGGCCCCUGUCAGAUUCUGGUGAAUCUGCGAAUUCUGCUGU, 0.158; to GGGGCACACAGCAGAAGCGUUCACGUCGCGGCCCCUGUCAGAUUCUGGUGAAUCUGCGAAUUCUGCUGU, 0.0948. To GGGGACCACAGCAGAAGCGUUCACGUCGCGGCCCCUGUCAGAUUCAGGUGAAUCUGCGAAUUCUGCUGU belongs 0.907; to GGGGACCACAGCAGAAGCGUUCACGUCGCGGCCCCUGUCAGAUUCGGGUGAAUCUGCGAAUUCUGCUGU, 0.925; to GGGGACCACAGCAGAAGCGUUCACGUCGCGGCCCCUGUCAGAUUCUUGUGAAUCUGCGAAUUCUGCUGU, 0.932. To GGGGCCCACUGCAGAAGCGUUCACGUCGCGGCCCCUGUCAGAUUCUGGUGAAUCUGCGAAUUCUGCUGU belongs 0.341. For GGGGACCACAGCAGGAGCGUUCACGUCGCGGCCCCUGUCAGAUUCUGGUGAAUCUGCGAAUUCUGCUGU, the self-cleavage came to 0.846.

Values taken from the RNAGym collection of RNA variant scans (doi:10.7554/elife.80360).
